This note sets out measurements from patent publication US20190338009A1 (ZEALAND PHARMA A S, published 2019).

Square brackets hold non-standard residues; d marks the D form. Aib = CC(C)(N)C(=O)O

Experiment [1] has as its target human glucagon-like peptide 1 receptor (GLP-1R) (human, UniProt P43220 24-463). Kind of experiment: cell-based or functional assay.
The target of experiment [2] is T1, human GLP-2 receptor (hGLP2-R) (human, UniProt O95838 1-553).
T1 sequence (looked up): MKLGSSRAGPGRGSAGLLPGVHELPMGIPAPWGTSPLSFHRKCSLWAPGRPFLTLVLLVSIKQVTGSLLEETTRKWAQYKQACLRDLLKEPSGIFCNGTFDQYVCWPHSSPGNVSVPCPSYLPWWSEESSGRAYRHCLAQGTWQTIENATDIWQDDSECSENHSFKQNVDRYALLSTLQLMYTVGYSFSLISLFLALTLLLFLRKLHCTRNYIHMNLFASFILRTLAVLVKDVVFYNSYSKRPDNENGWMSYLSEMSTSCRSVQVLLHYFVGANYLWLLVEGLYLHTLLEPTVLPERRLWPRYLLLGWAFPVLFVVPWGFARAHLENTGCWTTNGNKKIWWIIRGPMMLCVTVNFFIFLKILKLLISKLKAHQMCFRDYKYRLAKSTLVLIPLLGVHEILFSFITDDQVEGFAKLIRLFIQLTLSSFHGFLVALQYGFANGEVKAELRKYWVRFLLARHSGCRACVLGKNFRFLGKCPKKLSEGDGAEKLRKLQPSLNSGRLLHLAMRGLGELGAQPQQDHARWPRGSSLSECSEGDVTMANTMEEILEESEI
Kind of experiment: cell-based or functional assay.

B1: Compound 5 (peptide)
peptide: H-H[Aib]EGTFTSELATILDEQAARDFIAWLIEHKITD-OH
SMILES: CC[C@H](C)[C@H](NC(=O)[C@H](Cc1ccccc1)NC(=O)[C@H](CC(=O)O)NC(=O)[C@H](CCCNC(=N)N)NC(=O)[C@H](C)NC(=O)[C@H](C)NC(=O)[C@H](CCC(N)=O)NC(=O)[C@H](CCC(=O)O)NC(=O)[C@H](CC(=O)O)NC(=O)[C@H](CC(C)C)NC(=O)[C@@H](NC(=O)[C@@H](NC(=O)[C@H](C)NC(=O)[C@H](CC(C)C)NC(=O)[C@H](CCC(=O)O)NC(=O)[C@H](CO)NC(=O)[C@@H](NC(=O)[C@H](Cc1ccccc1)NC(=O)[C@@H](NC(=O)CNC(=O)[C@H](CCC(=O)O)NC(=O)C(C)(C)NC(=O)[C@@H](N)Cc1c[nH]cn1)[C@@H](C)O)[C@@H](C)O)[C@@H](C)O)[C@@H](C)CC)C(=O)N[C@@H](C)C(=O)N[C@@H](Cc1c[nH]c2ccccc12)C(=O)N[C@@H](CC(C)C)C(=O)N[C@H](C(=O)N[C@@H](CCC(=O)O)C(=O)N[C@@H](Cc1c[nH]cn1)C(=O)N[C@@H](CCCCN)C(=O)N[C@H](C(=O)N[C@H](C(=O)N[C@@H](CC(=O)O)C(=O)O)[C@@H](C)O)[C@@H](C)CC)[C@@H](C)CC
Take B1: the “EC50 GLP-1 (nM); cAMP AlphaScreen, HEK293 cells expressing human GLP-1R” value (from here on “EC50 GLP-1 (nM); cAMP AlphaScreen”) in experiment [1] amounted to 0.0098 nM. The “EC50 GLP-2 (nM); cAMP AlphaScreen, HEK293 cells expressing human GLP-2R” value (shortened to “EC50 GLP-2 (nM); cAMP AlphaScreen”) in experiment [2] turned out to be 0.067 nM.
Turning to HGDGSFSDEMNTILDNLAARDFINWLIQTKITD [Teduglutide], the “EC50 GLP-1 (nM); cAMP AlphaScreen” value in experiment [1] was determined as 39 nM.

B2: Compound 6 (peptide)
peptide: H-H[Aib]EGSFTSELATILDEQAARDFIAWLIHHKITD-OH
SMILES: CC[C@H](C)[C@H](NC(=O)[C@H](Cc1ccccc1)NC(=O)[C@H](CC(=O)O)NC(=O)[C@H](CCCNC(=N)N)NC(=O)[C@H](C)NC(=O)[C@H](C)NC(=O)[C@H](CCC(N)=O)NC(=O)[C@H](CCC(=O)O)NC(=O)[C@H](CC(=O)O)NC(=O)[C@H](CC(C)C)NC(=O)[C@@H](NC(=O)[C@@H](NC(=O)[C@H](C)NC(=O)[C@H](CC(C)C)NC(=O)[C@H](CCC(=O)O)NC(=O)[C@H](CO)NC(=O)[C@@H](NC(=O)[C@H](Cc1ccccc1)NC(=O)[C@H](CO)NC(=O)CNC(=O)[C@H](CCC(=O)O)NC(=O)C(C)(C)NC(=O)[C@@H](N)Cc1c[nH]cn1)[C@@H](C)O)[C@@H](C)O)[C@@H](C)CC)C(=O)N[C@@H](C)C(=O)N[C@@H](Cc1c[nH]c2ccccc12)C(=O)N[C@@H](CC(C)C)C(=O)N[C@H](C(=O)N[C@@H](Cc1c[nH]cn1)C(=O)N[C@@H](Cc1c[nH]cn1)C(=O)N[C@@H](CCCCN)C(=O)N[C@H](C(=O)N[C@H](C(=O)N[C@@H](CC(=O)O)C(=O)O)[C@@H](C)O)[C@@H](C)CC)[C@@H](C)CC
Regarding B2, in experiment [1], the “EC50 GLP-1 (nM); cAMP AlphaScreen” value was 0.014 nM. Also, the “EC50 GLP-2 (nM); cAMP AlphaScreen” value in experiment [2] was found to be 0.047 nM.

B3: Compound 9 (peptide)
peptide: H-H[Aib]EGTFTDELATILDEQAARDFIAWLIAHKITD-OH
SMILES: CC[C@H](C)[C@H](NC(=O)[C@H](CC(C)C)NC(=O)[C@H](Cc1c[nH]c2ccccc12)NC(=O)[C@H](C)NC(=O)[C@@H](NC(=O)[C@H](Cc1ccccc1)NC(=O)[C@H](CC(=O)O)NC(=O)[C@H](CCCNC(=N)N)NC(=O)[C@H](C)NC(=O)[C@H](C)NC(=O)[C@H](CCC(N)=O)NC(=O)[C@H](CCC(=O)O)NC(=O)[C@H](CC(=O)O)NC(=O)[C@H](CC(C)C)NC(=O)[C@@H](NC(=O)[C@@H](NC(=O)[C@H](C)NC(=O)[C@H](CC(C)C)NC(=O)[C@H](CCC(=O)O)NC(=O)[C@H](CC(=O)O)NC(=O)[C@@H](NC(=O)[C@H](Cc1ccccc1)NC(=O)[C@@H](NC(=O)CNC(=O)[C@H](CCC(=O)O)NC(=O)C(C)(C)NC(=O)[C@@H](N)Cc1c[nH]cn1)[C@@H](C)O)[C@@H](C)O)[C@@H](C)O)[C@@H](C)CC)[C@@H](C)CC)C(=O)N[C@@H](C)C(=O)N[C@@H](Cc1c[nH]cn1)C(=O)N[C@@H](CCCCN)C(=O)N[C@H](C(=O)N[C@H](C(=O)N[C@@H](CC(=O)O)C(=O)O)[C@@H](C)O)[C@@H](C)CC
As to B3, the “EC50 GLP-1 (nM); cAMP AlphaScreen” value in experiment [1] came out at 0.007 nM. For the same molecule, the “EC50 GLP-2 (nM); cAMP AlphaScreen” value in experiment [2] stood at 0.041 nM.

B4: Compound 7 (peptide)
peptide: H-H[Aib]EGSFTSELATILDEQAARDFIAWLIYHKITD-OH
SMILES: CC[C@H](C)[C@H](NC(=O)[C@H](Cc1ccccc1)NC(=O)[C@H](CC(=O)O)NC(=O)[C@H](CCCNC(=N)N)NC(=O)[C@H](C)NC(=O)[C@H](C)NC(=O)[C@H](CCC(N)=O)NC(=O)[C@H](CCC(=O)O)NC(=O)[C@H](CC(=O)O)NC(=O)[C@H](CC(C)C)NC(=O)[C@@H](NC(=O)[C@@H](NC(=O)[C@H](C)NC(=O)[C@H](CC(C)C)NC(=O)[C@H](CCC(=O)O)NC(=O)[C@H](CO)NC(=O)[C@@H](NC(=O)[C@H](Cc1ccccc1)NC(=O)[C@H](CO)NC(=O)CNC(=O)[C@H](CCC(=O)O)NC(=O)C(C)(C)NC(=O)[C@@H](N)Cc1c[nH]cn1)[C@@H](C)O)[C@@H](C)O)[C@@H](C)CC)C(=O)N[C@@H](C)C(=O)N[C@@H](Cc1c[nH]c2ccccc12)C(=O)N[C@@H](CC(C)C)C(=O)N[C@H](C(=O)N[C@@H](Cc1ccc(O)cc1)C(=O)N[C@@H](Cc1c[nH]cn1)C(=O)N[C@@H](CCCCN)C(=O)N[C@H](C(=O)N[C@H](C(=O)N[C@@H](CC(=O)O)C(=O)O)[C@@H](C)O)[C@@H](C)CC)[C@@H](C)CC
For the molecule B4, the “EC50 GLP-1 (nM); cAMP AlphaScreen” value in experiment [1] worked out at 0.017 nM. Besides, the “EC50 GLP-2 (nM); cAMP AlphaScreen” value in experiment [2] was determined as 0.11 nM.

B5: Compound 8 (peptide)
peptide: H-H[Aib]EGSFTSELATILDEQAARDFIAWLILHKITD-OH
SMILES: CC[C@H](C)[C@H](NC(=O)[C@H](Cc1ccccc1)NC(=O)[C@H](CC(=O)O)NC(=O)[C@H](CCCNC(=N)N)NC(=O)[C@H](C)NC(=O)[C@H](C)NC(=O)[C@H](CCC(N)=O)NC(=O)[C@H](CCC(=O)O)NC(=O)[C@H](CC(=O)O)NC(=O)[C@H](CC(C)C)NC(=O)[C@@H](NC(=O)[C@@H](NC(=O)[C@H](C)NC(=O)[C@H](CC(C)C)NC(=O)[C@H](CCC(=O)O)NC(=O)[C@H](CO)NC(=O)[C@@H](NC(=O)[C@H](Cc1ccccc1)NC(=O)[C@H](CO)NC(=O)CNC(=O)[C@H](CCC(=O)O)NC(=O)C(C)(C)NC(=O)[C@@H](N)Cc1c[nH]cn1)[C@@H](C)O)[C@@H](C)O)[C@@H](C)CC)C(=O)N[C@@H](C)C(=O)N[C@@H](Cc1c[nH]c2ccccc12)C(=O)N[C@@H](CC(C)C)C(=O)N[C@H](C(=O)N[C@@H](CC(C)C)C(=O)N[C@@H](Cc1c[nH]cn1)C(=O)N[C@@H](CCCCN)C(=O)N[C@H](C(=O)N[C@H](C(=O)N[C@@H](CC(=O)O)C(=O)O)[C@@H](C)O)[C@@H](C)CC)[C@@H](C)CC
For B5, the “EC50 GLP-1 (nM); cAMP AlphaScreen” value in experiment [1] was 0.021 nM. The “EC50 GLP-2 (nM); cAMP AlphaScreen” value in experiment [2] came to 0.084 nM.

B6: Compound 3 (peptide)
peptide: H-H[Aib]EGTFTSELATILDEQAARDFIAWLIAHKITD-OH
SMILES: CC[C@H](C)[C@H](NC(=O)[C@H](CC(C)C)NC(=O)[C@H](Cc1c[nH]c2ccccc12)NC(=O)[C@H](C)NC(=O)[C@@H](NC(=O)[C@H](Cc1ccccc1)NC(=O)[C@H](CC(=O)O)NC(=O)[C@H](CCCNC(=N)N)NC(=O)[C@H](C)NC(=O)[C@H](C)NC(=O)[C@H](CCC(N)=O)NC(=O)[C@H](CCC(=O)O)NC(=O)[C@H](CC(=O)O)NC(=O)[C@H](CC(C)C)NC(=O)[C@@H](NC(=O)[C@@H](NC(=O)[C@H](C)NC(=O)[C@H](CC(C)C)NC(=O)[C@H](CCC(=O)O)NC(=O)[C@H](CO)NC(=O)[C@@H](NC(=O)[C@H](Cc1ccccc1)NC(=O)[C@@H](NC(=O)CNC(=O)[C@H](CCC(=O)O)NC(=O)C(C)(C)NC(=O)[C@@H](N)Cc1c[nH]cn1)[C@@H](C)O)[C@@H](C)O)[C@@H](C)O)[C@@H](C)CC)[C@@H](C)CC)C(=O)N[C@@H](C)C(=O)N[C@@H](Cc1c[nH]cn1)C(=O)N[C@@H](CCCCN)C(=O)N[C@H](C(=O)N[C@H](C(=O)N[C@@H](CC(=O)O)C(=O)O)[C@@H](C)O)[C@@H](C)CC
As for B6, the “EC50 GLP-1 (nM); cAMP AlphaScreen” value in experiment [1] was found to be 0.0074 nM. The “EC50 GLP-2 (nM); cAMP AlphaScreen” value in experiment [2] is 0.036 nM.

B7: Compound 4 (peptide)
peptide: H-H[Aib]EGSFTSELATILDEQAARDFIAWLIEHKITD-OH
SMILES: CC[C@H](C)[C@H](NC(=O)[C@H](Cc1ccccc1)NC(=O)[C@H](CC(=O)O)NC(=O)[C@H](CCCNC(=N)N)NC(=O)[C@H](C)NC(=O)[C@H](C)NC(=O)[C@H](CCC(N)=O)NC(=O)[C@H](CCC(=O)O)NC(=O)[C@H](CC(=O)O)NC(=O)[C@H](CC(C)C)NC(=O)[C@@H](NC(=O)[C@@H](NC(=O)[C@H](C)NC(=O)[C@H](CC(C)C)NC(=O)[C@H](CCC(=O)O)NC(=O)[C@H](CO)NC(=O)[C@@H](NC(=O)[C@H](Cc1ccccc1)NC(=O)[C@H](CO)NC(=O)CNC(=O)[C@H](CCC(=O)O)NC(=O)C(C)(C)NC(=O)[C@@H](N)Cc1c[nH]cn1)[C@@H](C)O)[C@@H](C)O)[C@@H](C)CC)C(=O)N[C@@H](C)C(=O)N[C@@H](Cc1c[nH]c2ccccc12)C(=O)N[C@@H](CC(C)C)C(=O)N[C@H](C(=O)N[C@@H](CCC(=O)O)C(=O)N[C@@H](Cc1c[nH]cn1)C(=O)N[C@@H](CCCCN)C(=O)N[C@H](C(=O)N[C@H](C(=O)N[C@@H](CC(=O)O)C(=O)O)[C@@H](C)O)[C@@H](C)CC)[C@@H](C)CC
With B7, the “EC50 GLP-1 (nM); cAMP AlphaScreen” value in experiment [1] turned out to be 0.015 nM. In addition, the “EC50 GLP-2 (nM); cAMP AlphaScreen” value in experiment [2] is 0.044 nM.
